Drawing on article PMC7393090, this text covers percent of BiFC positive cells (co-culture) for one substance.

The target of the experiment is tau Venus BiFC constructs (UniProt P10636). Briefly: split reporter (BiFC, NanoBiT); Venus BiFC; co-culture of HEK293 cells transfected with the VN construct and cells transfected with the VC construct (50,000 cells each per ml, 48 h); flow cytometry, cells above 120 fluorescence units are positive; also run after treatment with anle138b 1 µM, EGCG 0.1 µM, fulvic acid 37 µM or dynasore 10 µM.

In the case of “tau Venus BiFC constructs (from UniProt P10636 1-758) (natural protein)”, the percent of BiFC positive cells (co-culture) amounted to 3.9%.
